Results: patent publication US20220380791A1

Biological target: M6P receptor (M6PR) (human)
Assay: cell-based or functional assay

Agalsidase beta (Genzyme, Fabrazyme) (from UniProt P06280 32-429)
intracellular α-gal A activity of Fabry patient fibroblasts after 18 hours incubation with 10 µg/ml enzyme (fold of untreated cells): 134 fold
